Assays:
hTie2 (EGF) = molecular target: T1, hTie2 (EGF) (human, UniProt Q02763 210-344); assay: Luminex bead binding
T1 construct: Domain-deletion construct linked to Luminex beads
Experimental: (§1) For binding, 25 μl of anti-Tie2 antibody (25 μg/ml) was added to 75 μl of the above created Luminex bead mixture (3×10³ beads per construct) in binding buffer (PBS, 0.05% Tween 20, 1 mg/ml BSA, 0.05% sodium azide) into a 96 well filter plate (Millipore). Incubation was at room temperature (RT) for 90 min or overnight at 4° C. with shaking. The beads were washed 3× with washing buffer (PBS+0.05% Tween 20) resuspended in 100 μl binding buffer containing PE (phycoerythrine)-labeled anti human kappa or PE-labeled anti mouse Fab secondary antibody and incubated at RT for 45 min with shaking. Samples were washed 2× more and binding signal (MFI) for each bead was determined using a Luminex L200 or FLEXMAP3D instrument. Bead linked human Tie2 was used as positive control and bead linked human Tie1 was used to measure family cross-reactivity. In general MFI signals greater than 500 units represent significant binding.

hTie2 (Ig1-Ig2-EGF) = molecular target: T2, hTie2 (Ig1-Ig2-EGF) (human, UniProt Q02763 24-344); assay: Luminex bead binding
T2 construct: Domain-deletion construct; also used for H/D exchange
Experimental: as §1

hTie2 (Ig2-EGF) = molecular target: T3, hTie2 (Ig2-EGF) (human, UniProt Q02763 121-344); assay: Luminex bead binding
T3 construct: Domain-deletion construct linked to Luminex beads
Experimental: as §1

[1] = molecular target: hTie2 on 293-Tie2/SRE-Luc cells (human, UniProt Q02763 23-1124); assay: cell-based or functional assay
mTie2-hFc = molecular target: T4, mTie2-hFc (mouse); assay: SPR Biacore 25C, mAb captured
T4 construct: also called mouse Tie2
Experimental: (§2) (Tables 3-6). Measurements were conducted on a Biacore 2000 or T200 instrument.
(§3) For antibodies with a mouse constant region (designated H1M or H2M), antibodies were immobilized onto an anti-mouse Fc sensor surface and different concentrations of human, mouse or rat Tie2 constructs (hTie2-His, mTie2-hFc and rTie2-hFc) were injected over the antibody captured surface. For antibodies in the human IgG format (designated H1H or H4H), either an anti-human Fc sensor surface (hTie2-His and hTie2-mFc) or anti-human Fab sensor surface (mTie2-hFc and rTie2-hFc) was employed depending on the Tie-2 construct applied to the antibody captured surface. Amino acid sequences of the constructs used in this Example are as follows: hTie2-His (SEQ ID NO:2); hTie2-hFc (SEQ ID NO:3); hTie2-mFc (SEQ ID NO:4); rTie2-hFc (SEQ ID NO:5); and mTie2-hFc (SEQ ID NO:6).
(§4) Kinetic rate constants—association rate (ka) and dissociation rate (kd) were determined by fitting the real time binding sensorgrams to a 1:1 binding model with mass transport limitation using Scrubber 2.0 curve fitting software. The equilibrium dissociation constant (KD) and dissociative half-life (T½) were calculated from the kinetic rate constants as: KD (M)=kd/ka; and T½ (min)=(In2/(60*kd).).

rTie2-hFc = molecular target: T5, rTie2-hFc (rat); assay: SPR Biacore 25C, mAb captured
T5 construct: also called rat Tie2
Experimental: as §2, §3, §4

hAng4 = molecular target: T6, hAng4 (human, UniProt Q9Y264 25-503, limits assumed); assay: Octet Red biosensor, hTie2.mFc captured on anti-mFc tips, 100 nM angiopoietin for 5 min; some tips first saturated with 300 nM H4H2055N or Control I
T6 construct: Bought protein; also called angiopoietin 4
T6 sequence (looked up): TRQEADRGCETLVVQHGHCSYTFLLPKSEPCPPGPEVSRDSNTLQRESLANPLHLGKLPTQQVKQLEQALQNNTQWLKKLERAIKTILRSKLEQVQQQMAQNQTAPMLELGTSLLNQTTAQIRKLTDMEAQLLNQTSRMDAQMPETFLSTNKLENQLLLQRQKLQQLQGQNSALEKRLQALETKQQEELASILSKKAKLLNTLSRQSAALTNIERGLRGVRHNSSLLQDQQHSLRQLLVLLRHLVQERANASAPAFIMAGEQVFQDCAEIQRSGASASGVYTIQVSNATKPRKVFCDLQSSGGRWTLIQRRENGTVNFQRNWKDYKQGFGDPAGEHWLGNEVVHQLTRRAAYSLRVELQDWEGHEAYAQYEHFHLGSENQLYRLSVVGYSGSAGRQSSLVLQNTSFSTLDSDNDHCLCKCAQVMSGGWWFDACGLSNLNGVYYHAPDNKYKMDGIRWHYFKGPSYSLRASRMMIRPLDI
Experimental: (§5) A further set of experiments was conducted to evaluate the ability of H4H2055N to block Tie2 binding to Ang2 and other members of the angiopoietin family (Ang1, Ang3 and Ang4). In this set of experiments, an Octet Red biosensor was employed using two experimental formats. In the first format, hTie2.mFc (SEQ ID NO:4; 10 μg/ml) or a negative control was captured on anti-mFc Octet sensor tips for 5 min. The captured sensor tip surfaces were then saturated with H4H2055N or Control I antibody by dipping into wells containing 300 nM of respective monoclonal antibodies for 10 min. Finally the sensor tips were placed into wells containing 100 nM of hAng1 (R&D Systems, Inc., Minneapolis, Minn., Cat 923-AN/CF; Accession #Q5HYA0), hAng2 (R&D Systems, Inc., Minneapolis, Minn., Cat 623-AN/CF; Accession #015123), mAng3 (R&D Systems, Inc., Minneapolis, Minn., Cat 738-AN/CF; Accession #Q9WVH6) or hAng4 (R&D Systems, Inc., Minneapolis, Minn., Cat 964-AN/CF; Accession Q9Y264) for 5 min. Binding response at each step of the experiment was monitored and the binding of different angiopoietins to the monoclonal antibody saturated receptor surfaces was plotted (FIG. 2). As illustrated by FIG. 2, H4H2055N blocked the binding of all four angiopoietins to the hTie2.mFc surface.

hAng2 = molecular target: T7, hAng2 (human, UniProt O15123 19-496, limits assumed); assay: as above
T7 construct: Bought protein; also called angiopoietin 2
T7 sequence (looked up): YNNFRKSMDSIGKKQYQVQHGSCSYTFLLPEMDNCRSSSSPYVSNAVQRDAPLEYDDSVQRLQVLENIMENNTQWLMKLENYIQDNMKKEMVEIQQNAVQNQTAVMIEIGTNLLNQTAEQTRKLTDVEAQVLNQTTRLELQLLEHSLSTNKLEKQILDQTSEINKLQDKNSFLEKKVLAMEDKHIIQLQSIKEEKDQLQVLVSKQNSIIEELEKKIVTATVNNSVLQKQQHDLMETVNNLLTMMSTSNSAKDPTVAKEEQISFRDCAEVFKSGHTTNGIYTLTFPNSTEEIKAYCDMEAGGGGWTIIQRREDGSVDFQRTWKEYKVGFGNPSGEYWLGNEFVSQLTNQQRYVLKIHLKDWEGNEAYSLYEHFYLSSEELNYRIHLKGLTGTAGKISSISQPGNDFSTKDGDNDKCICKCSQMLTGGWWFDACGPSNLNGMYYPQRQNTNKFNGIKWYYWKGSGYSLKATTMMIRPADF
Experimental: as §5

mAng3 = molecular target: T8, mAng3 (mouse, UniProt Q9WVH6 22-509, limits assumed); assay: as above
T8 construct: Bought protein; also called angiopoietin 3
T8 sequence (looked up): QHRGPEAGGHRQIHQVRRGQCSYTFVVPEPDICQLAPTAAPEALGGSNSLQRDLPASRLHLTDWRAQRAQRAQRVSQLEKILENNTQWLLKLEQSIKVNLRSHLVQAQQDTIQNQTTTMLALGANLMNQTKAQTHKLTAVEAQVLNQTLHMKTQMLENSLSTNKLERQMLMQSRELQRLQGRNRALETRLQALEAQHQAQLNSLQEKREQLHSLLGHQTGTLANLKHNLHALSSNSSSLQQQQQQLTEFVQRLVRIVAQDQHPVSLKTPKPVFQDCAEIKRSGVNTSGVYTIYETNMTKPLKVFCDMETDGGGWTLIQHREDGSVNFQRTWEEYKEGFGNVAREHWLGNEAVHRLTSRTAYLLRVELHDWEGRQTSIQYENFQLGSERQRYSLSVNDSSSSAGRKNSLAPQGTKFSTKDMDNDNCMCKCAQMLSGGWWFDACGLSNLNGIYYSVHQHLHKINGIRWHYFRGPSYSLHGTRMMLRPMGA
Experimental: as §5

T5 sequence (chain, as listed by the source limits assumed): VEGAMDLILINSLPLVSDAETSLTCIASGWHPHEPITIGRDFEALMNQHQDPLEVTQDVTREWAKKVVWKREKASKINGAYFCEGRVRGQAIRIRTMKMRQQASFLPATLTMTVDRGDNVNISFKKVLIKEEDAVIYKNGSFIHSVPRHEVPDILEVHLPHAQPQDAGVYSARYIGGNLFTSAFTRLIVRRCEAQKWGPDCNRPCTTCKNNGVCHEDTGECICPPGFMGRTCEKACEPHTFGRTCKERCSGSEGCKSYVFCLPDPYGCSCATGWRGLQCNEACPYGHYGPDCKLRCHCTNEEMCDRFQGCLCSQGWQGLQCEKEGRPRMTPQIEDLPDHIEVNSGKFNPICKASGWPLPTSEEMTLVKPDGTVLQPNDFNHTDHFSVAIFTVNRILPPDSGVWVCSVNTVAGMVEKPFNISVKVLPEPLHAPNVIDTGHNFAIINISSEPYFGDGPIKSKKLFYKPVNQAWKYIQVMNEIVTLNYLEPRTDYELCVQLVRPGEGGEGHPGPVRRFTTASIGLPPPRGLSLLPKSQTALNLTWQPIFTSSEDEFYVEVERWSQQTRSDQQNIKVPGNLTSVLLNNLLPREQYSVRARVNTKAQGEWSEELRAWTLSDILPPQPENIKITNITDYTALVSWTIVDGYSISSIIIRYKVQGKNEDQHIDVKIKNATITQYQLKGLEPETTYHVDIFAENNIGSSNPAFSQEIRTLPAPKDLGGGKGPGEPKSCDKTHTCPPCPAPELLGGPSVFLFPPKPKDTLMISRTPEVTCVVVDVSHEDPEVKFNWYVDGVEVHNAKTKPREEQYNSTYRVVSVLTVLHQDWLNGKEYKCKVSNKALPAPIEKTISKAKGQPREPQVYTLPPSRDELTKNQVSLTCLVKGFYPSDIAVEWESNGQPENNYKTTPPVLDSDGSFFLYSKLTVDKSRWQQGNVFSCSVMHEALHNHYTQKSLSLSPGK
T1 sequence (Q02763 other isoform, or with tags, fused parts or gaps limits assumed): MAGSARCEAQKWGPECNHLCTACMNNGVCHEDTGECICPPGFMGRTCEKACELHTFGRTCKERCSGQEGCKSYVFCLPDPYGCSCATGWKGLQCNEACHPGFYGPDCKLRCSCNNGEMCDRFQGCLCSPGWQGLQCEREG
T3 sequence (Q02763 other isoform, or with tags, fused parts or gaps limits assumed): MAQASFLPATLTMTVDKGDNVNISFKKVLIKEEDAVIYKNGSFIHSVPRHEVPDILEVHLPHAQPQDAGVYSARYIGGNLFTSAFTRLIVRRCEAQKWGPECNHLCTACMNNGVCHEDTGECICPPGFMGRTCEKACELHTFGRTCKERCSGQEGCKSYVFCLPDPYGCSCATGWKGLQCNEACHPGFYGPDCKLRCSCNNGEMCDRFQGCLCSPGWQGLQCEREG

B1: H1H2332B (antibody, V domains shown)
VH: QVQLQESGPGLVKPSETLSLTCTVSGASISSYYWTWFRQPPGQGLEWIGYIYYSGSTNYNPSLKSRVTISVDTSMNQFSLKLTSVTAADTAVYYCARQGGYTSSLFDYWGQGTLVTVSS
VL: DIQMTQSPSSLSASVGDRVTITCRASQSISSYLNWYQQKPGKAPKLLIYVVSSLQSGVPSRFSGSGSGTDFTLTISSLQPEDFATYYCQQSYSIPWTFGQGTKVEIK
notes: Tested as H1H2332B (human IgG format, H1H prefix)
B1: no binding (tested: MFI >500 = significant binding) (hTie2 (EGF)); no binding (tested: MFI >500 = significant binding) (hTie2 (Ig1-Ig2-EGF)); no binding (tested: MFI >500 = significant binding) (hTie2 (Ig2-EGF)). For the same binder, the “EC50, Tie2 dependent luciferase activity, 293-Tie2/SRE-Luc cells with 1 nM BowAng1” value [1] was 2.5 nM, the “EC50, Tie2 dependent luciferase activity, 293-Tie2/SRE-Luc cells with 1 nM BowAng2” value [1] was 3.7 nM and the Kd (mTie2-hFc) was 107 nM. The “T½” value (mTie2-hFc) was 2 min, the koff (mTie2-hFc) was 0.00576 s⁻¹ and the kon (mTie2-hFc) was 53900 M⁻¹ s⁻¹. For the same binder, the Kd (rTie2-hFc) was 55.3 nM, the “T½” value (rTie2-hFc) was 2 min and the koff (rTie2-hFc) was 0.00618 s⁻¹. The kon (rTie2-hFc) was 112000 M⁻¹ s⁻¹.

B2: hTie2-mFc (Fc fusion)
chain: AMDLILINSLPLVSDAETSLTCIASGWRPHEPITIGRDFEALMNQHQDPLEVTQDVTREWAKKVVWKREKASKINGAYFCEGRVRGEAIRIRTMKMRQQASFLPATLTMTVDKGDNVNISFKKVLIKEEDAVIYKNGSFIHSVPRHEVPDILEVHLPHAQPQDAGVYSARYIGGNLFTSAFTRLIVRRCEAQKWGPECNHLCTACMNNGVCHEDTGECICPPGFMGRTCEKACELHTFGRTCKERCSGQEGCKSYVFCLPDPYGCSCATGWKGLQCNEACHPGFYGPDCKLRCSCNNGEMCDRFQGCLCSPGWQGLQCEREGIPRMTPKIVDLPDHIEVNSGKFNPICKASGWPLPTNEEMTLVKPDGTVLHPKDFNHTDHFSVAIFTIHRILPPDSGVWVCSVNTVAGMVEKPFNISVKVLPKPLNAPNVIDTGHNFAVINISSEPYFGDGPIKSKKLLYKPVNHYEAWQHIQVTNEIVTLNYLEPRTEYELCVQLVRRGEGGEGHPGPVRRFTTASIGLPPPRGLNLLPKSQTTLNLTWQPIFPSSEDDFYVEVERRSVQKSDQQNIKVPGNLTSVLLNNLHPREQYVVRARVNTKAQGEWSEDLTAWTLSDILPPQPENIKISNITHSSAVISWTILDGYSISSITIRYKVQGKNEDQHVDVKIKNATIIQYQLKGLEPETAYQVDIFAENNIGSSNPAFSHELVTLPESQAPADLGGGKGPGEPRGPTIKPCPPCKCPAPNLLGGPSVFIFPPKIKDVLMISLSPIVTCVVVDVSEDDPDVQISWFVNNVEVHTAQTQTHREDYNSTLRVVSALPIQHQDWMSGKEFKCKVNNKDLPAPIERTISKPKGSVRAPQVYVLPPPEEEMTKKQVTLTCMVTDFMPEDIYVEWTNNGKTELNYKNTEPVLDSDGSYFMYSKLRVEKKNWVERNSYSCSVVHEGLHNHHTTKSFSRTPGK
B2: binds (hAng4); binds (hAng2); binds (mAng3).

— patent US20170174789A1 (Regeneron, published 2017)
